# Molecular target: Asialoglycoprotein receptor 1 (ASGR1) on the surface of HEPG2 cells (human) (UniProt P07306)
# Assay: cell-based or functional assay
# Sequence of UniProt P07306 (P07306 whole entry): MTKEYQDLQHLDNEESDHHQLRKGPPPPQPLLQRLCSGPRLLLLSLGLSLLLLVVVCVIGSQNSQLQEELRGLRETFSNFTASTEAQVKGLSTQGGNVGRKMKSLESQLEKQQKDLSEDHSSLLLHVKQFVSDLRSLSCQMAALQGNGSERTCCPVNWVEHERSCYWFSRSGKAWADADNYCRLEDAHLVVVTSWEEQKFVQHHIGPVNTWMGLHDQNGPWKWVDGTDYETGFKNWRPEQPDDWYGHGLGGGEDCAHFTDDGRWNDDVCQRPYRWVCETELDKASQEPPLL
substance,measurement,value
"Anti-Asialoglycoprotein Receptor 1/HL-1 antibody (abCAM, Product Number ab49355)","improvement of mmu-miR-298-5p uptake efficiency into HEPG2 cells, against unmodified EVs",60%
same,"relative quantification of mmu-miR-298-5p in Hep-G2 cells (qRT-PCR, relative ratio to control cells) (relative ratio)",2000
same,"relative quantification of mmu-miR-298-5p in Hep-G2 cells, against DharmaFECT transfection",8 fold

# Source: US20220088215A1
